According to PMC4822561, “Structure of a quinolone-stabilized cleavage complex of topoisomerase IV from Klebsiella pneumoniae and comparison with a related Streptococcus pneumoniae complex” (Acta Crystallographica. Section D, Structural Biology, 2016):

B1: K. pneumoniae topoisomerase IV ParC breakage-reunion domain (ParC55; residues 1–490) (domain or fragment, K. pneumoniae (strain ATCC 35657))
chain: MSDMAERLALHEFTENAYLNYSMYVIMDRALPFIGDGLKPVQRRIVYAMSELGLNASAKFKKSARTVGDVLGKYHPHGDSACYEAMVLMAQPFSYRYPLGDGQGNWGAPDDPKSFAAMRYTESRLSKYAELLLSELGQGTVDWVPNFDGTLQEPKMLPARLPNILLNGTTGIAVGMATDIPPHNLREVAKAAITLIEQPKTTLDELLDIVQGPDFPTEAEIITSRAEIRKIYQNGRGSVRMRAVWSKEDGAVVITALPHQVSGAKVLEQIAAQMRNKKLPMVDDLRDESDHENPTRLVIVPRSNRVDMEQVMNHLFATTDLEKSYRINLNMIGLDGRPAVKNLLEILSEWLVFRRDTVRRRLNHRLEKVLKRLHILEGLLVAFLNIDEVIEIIRTEDEPKPALMSRFGISETQAEAILELKLRHLAKLEEMKIRGEQSELEKERDQLQAILASERKMNNLLKKELQADADAFGDDRRSPLHEREEAKAMS
notes: ParC breakage-reunion domain (ParC55), K. pneumoniae strain ATCC 35657, residues 1-490; In the crystal this stretch was joined on one chain with ParE 390-631 (see m1: M-ParE(390-631)-EF-ParC(1-490)-His6); written alone for the pair rows; also called ParC NTD 1–490; ParC subunit; source: E. coli BL21(λDE3) pLysS, pET-29a; purification protocol in the Supporting Information
B2: S. pneumoniae topoisomerase IV ParE30 (domain or fragment)
chain: KNKKDKGLLSGKLTPAQSKNPAKNELYLVEGDSAGGSAKQGRDRKFQAILPLRGKVINTAKAKMADILKNEEINTMIYTIGAGVGADFSIEDANYDKIIIMTDADTDGAHIQTLLLTFFYRYMRPLVEAGHVYIALPPLYKMSKGKGKKEEVAYAWTDGELEELRKQFGKGATLQRYKGLGEMNADQLWETTMNPETRTLIRVTIEDLARAERRVNVLMGDKVEPRRKWIEDNVKFTLEEATVF
notes: ParE TOPRIM domain (ParE30), S. pneumoniae isolate 7785 (St George's Hospital); the limits fit the printed Glu474 and Glu475; also called ParE C-terminal domain; ParE TOPRIM domain; source: E. coli BL21(λDE3) pLysS, pET-19b (N-terminal His10); purification protocol in the Supporting Information
B3: S. pneumoniae topoisomerase IV ParC55 (domain or fragment)
chain: MSNIQNMSLEDIMGERFGRYSKYIIQDRALPDIRDGLKPVQRRILYSMNKDSNTFDKSYRKSAKSVGNIMGNFHPHGDSSIYDAMVRMSQNWKNREILVEMHGNNGSMDGDPPAAMRYTEARLSEIAGYLLQDIEKKTVPFAWNFDDTEKEPTVLPAAFPNLLVNGSTGISAGYATDIPPHNLAEVIDAAVYMIDHPTAKIDKLMEFLPGPDFPTGAIIQGRDEIKKAYETGKGRVVVRSKTEIEKLKGGKEQIVITEIPYEINKANLVKKIDDVRVNNKVAGIAEVRDESDRDGLRIAIELKKDANTELVLNYLFKYTDLQINYNFNMVAIDNFTPRQVGIVPILSSYIAHRREVILARSRFDKEKAEKRLHIVEGLIRVISILDEVIALIRASENKADAKENLKVSYDFTEEQAEAIVTLQLYRLTNTDVVVLQEEEAELREKIAMLAAIIGDERTMYNLMKKELREVKKKFATPRLSSLEDTAKALE
notes: ParC breakage-reunion domain (ParC55), S. pneumoniae isolate 7785 (St George's Hospital); two residues between ParC and the His6 tag; also called ParC N-terminal domain; ParC subunit; source: E. coli BL21(λDE3) pLysS, pET-29a (C-terminal His6); purification protocol in the Supporting Information

How the values were obtained:
[1] = target: the molecule itself; assay: crystal structure; K. pneumoniae ParE-ParC fusion (4.5 mg/ml) co-crystallised with pre-cut 34-mer E-site DNA (1:1.2 protein:DNA), 2 mM levofloxacin, 10 mM MgCl2; vapour diffusion, 298 K; 3.35 Å, space group P2(1)
[2] = target: B3; assay: crystal structure; S. pneumoniae ParC55:ParE30:18-mer E-site DNA 1:1:1.2 at 4 mg/ml, 2 mM levofloxacin, 10 mM MgCl2; capillary counter-diffusion, 304 K; 2.9 Å, space group P3(1)21; details: both partners purified
[3] = target: the molecule itself; assay: as above

In the case of B1, the “stoichiometry N” value [1] is reported as 2.

B2: binds [2].

B3: binds [3].
